According to IntAct's records for PubMed 23022437:

B1: Sodium channel protein type 7 subunit alpha (Mus musculus), B1AYL1 (parent)
chain: MLTSPEPKGLVPFTTESLELIENHIAKKCNEDPEEEEGLKPSRNLEAGKRLPIPYGTLPRGTVSEPLEDVDPYYYVKRNTFMVLNRSRVIFRFNAVSIFCTLSPLNSLRRAAIKALVHPLFRLLILISVLTDSILMCMSNLPEWILAIENTLLGIYAFEILVKVIARGIWAGSFSFLGDLWNWLDFSVTLFELITRFSPLSSFLMLKTIRTFRILKIIPLNHGLQSIVMTLAQCLKKLFGAIALALFFLAVFSLLGMGLFMGNLKHKCLRWPEENENETLHNRTGSLNYSPERINFYYMEGAKYALLCGNRTDAGQCPEGYVCVKEGTNPDNGFTSFDNFGWSLLAMFRLMTQDYPELLYHQILYASGKVYMIFFVMISFWFAFYLTSLFLGILTMTYEKEKQRACEESGGLDPKCQQTVKELDEENDAAEMETTQIEMKKRSPTSINTTLDILEDTTLGHREEPETSRKKCPICWHKFIKTCFIWKCSPCWVKLNEFADRVITHPLADLFLVICIVLNICFLALEHFPMSEELRSLLHVGNLVFIGIYTIEMILKIIAMHPYGYFQISWNIFDSILVVLELTEILLADVEGLAVLITVPLIFIKLGKYGPPFKSLMRILGSSLMALKDLVLLLCIFVYFSAVFGMKLFGRSYKDCVCHIKEDCQPQRWHMSDFLHAYMTVFRILCGEWIETLWECMEVAGQAWCIPFYMMVILIGNLLILYLFVTLVSSFSYYDATSEVNKEAKNLQLAMARIKSGINSMLLKLMCTERSVPTEATDQICDPSVKENISGHTLSELSNTQTFLRYKDQSSSTEKTPVTESESQSLIASPSASETVPIASGESDIENLDNKETRSKSGNGGSKEKMKQSSSSECSTVDIAISEEEEMVYEHEKSKLHKNGYERKSSTGQISRESRNGKIWKNIRKTCCKIVENSWFECFIGLVTLLCTGTLALEDIYIDQRKTTKILLEYADMIFAYIFILEMLLKWVAYGFKAFFSNNWYKLDFMVVIVFCLSLIGKTREDLNPLTSIKFLRALRVLSQFERMKVVLRALIKTTLPTVSVFLVCLMIWLLFSVIGVQLFAGKFYECIDPTKGERFPVFEVMNKSQCEKLLFNESMPWENAKLNFDNVGNGFLSLLQVATFNGWISIMNSAIDSVGVNMQPSFEYNLYMYSYFIIFVIFGLFLPLCMLIGVIIRNFNKQKIKQGGSNIFITVKQKKQYRALKKLLYADVQKPTPRPRNKFQGFLFDLVTHRVFNVIIILLICFQATTIMIQKDEQSPQMETAIFWMNSIFVMLFTLECILKLTAFRCHYFTSAWNVHDFMVVIFSITGLLLPLTIGQYFVPPSLVQLILLSRVIHILRPGKGPKVFHDLMLPLILALPALLNISLLIFLVMFIYAIFGMYNFAYVKKEAGINDVSNFETFGSSMLCLFQVTTFSGWDGMLDAIFNSQWSDCDPDKINPGTQVKGDCGSPSVGISYFVSYILISWLIIVNMYIVLIMEFLSIPSQKKSRTLSEDDFRRFFRVWNRFDPDRTQYIDSSKLSDFAAALDPPLFMAKPNKGQLVAMDLPMAAGDRIHCLDILLAFTKRVMGKDERVEKILSEIESGFMLANPFKITYEPITTTLKRKQEAVSATIIQRAYKSYRLRQNDKNVSDTPAIDDRRDDLTSKGAHSGKIEEKASIQTQI

Variants of: B1
Settings: with dlg1_mouse Dlg1, Q811D0
dlg1_mouse Dlg1, Q811D0, sequence (Q811D0 whole entry): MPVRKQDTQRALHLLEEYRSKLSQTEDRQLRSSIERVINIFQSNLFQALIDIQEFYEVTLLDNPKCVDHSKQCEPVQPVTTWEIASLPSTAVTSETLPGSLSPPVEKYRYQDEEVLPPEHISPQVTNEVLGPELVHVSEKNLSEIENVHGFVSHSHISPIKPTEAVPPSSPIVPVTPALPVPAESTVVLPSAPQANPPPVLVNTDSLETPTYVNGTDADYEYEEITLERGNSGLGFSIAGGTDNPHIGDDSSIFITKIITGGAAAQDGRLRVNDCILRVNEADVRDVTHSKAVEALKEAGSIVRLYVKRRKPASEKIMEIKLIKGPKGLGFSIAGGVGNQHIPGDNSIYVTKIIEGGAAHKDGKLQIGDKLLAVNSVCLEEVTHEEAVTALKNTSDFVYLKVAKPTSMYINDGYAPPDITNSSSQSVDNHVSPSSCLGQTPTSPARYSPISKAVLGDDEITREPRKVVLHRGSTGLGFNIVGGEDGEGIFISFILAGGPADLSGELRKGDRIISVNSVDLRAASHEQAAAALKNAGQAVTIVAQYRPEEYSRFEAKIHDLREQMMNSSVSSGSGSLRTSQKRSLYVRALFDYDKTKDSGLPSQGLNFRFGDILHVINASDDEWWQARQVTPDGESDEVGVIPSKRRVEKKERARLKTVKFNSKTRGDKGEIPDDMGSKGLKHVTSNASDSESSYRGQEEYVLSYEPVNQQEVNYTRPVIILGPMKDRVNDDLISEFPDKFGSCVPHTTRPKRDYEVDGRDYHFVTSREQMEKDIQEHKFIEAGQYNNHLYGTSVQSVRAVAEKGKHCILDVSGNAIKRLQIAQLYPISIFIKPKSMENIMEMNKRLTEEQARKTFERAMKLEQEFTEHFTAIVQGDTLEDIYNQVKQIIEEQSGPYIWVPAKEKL

Variant	effect of a mutation on the interaction
T1679A	disrupting interaction

Variants of: B1
Settings: with dlg1_rat Dlg1, Q62696
dlg1_rat Dlg1, Q62696, sequence (Q62696 whole entry): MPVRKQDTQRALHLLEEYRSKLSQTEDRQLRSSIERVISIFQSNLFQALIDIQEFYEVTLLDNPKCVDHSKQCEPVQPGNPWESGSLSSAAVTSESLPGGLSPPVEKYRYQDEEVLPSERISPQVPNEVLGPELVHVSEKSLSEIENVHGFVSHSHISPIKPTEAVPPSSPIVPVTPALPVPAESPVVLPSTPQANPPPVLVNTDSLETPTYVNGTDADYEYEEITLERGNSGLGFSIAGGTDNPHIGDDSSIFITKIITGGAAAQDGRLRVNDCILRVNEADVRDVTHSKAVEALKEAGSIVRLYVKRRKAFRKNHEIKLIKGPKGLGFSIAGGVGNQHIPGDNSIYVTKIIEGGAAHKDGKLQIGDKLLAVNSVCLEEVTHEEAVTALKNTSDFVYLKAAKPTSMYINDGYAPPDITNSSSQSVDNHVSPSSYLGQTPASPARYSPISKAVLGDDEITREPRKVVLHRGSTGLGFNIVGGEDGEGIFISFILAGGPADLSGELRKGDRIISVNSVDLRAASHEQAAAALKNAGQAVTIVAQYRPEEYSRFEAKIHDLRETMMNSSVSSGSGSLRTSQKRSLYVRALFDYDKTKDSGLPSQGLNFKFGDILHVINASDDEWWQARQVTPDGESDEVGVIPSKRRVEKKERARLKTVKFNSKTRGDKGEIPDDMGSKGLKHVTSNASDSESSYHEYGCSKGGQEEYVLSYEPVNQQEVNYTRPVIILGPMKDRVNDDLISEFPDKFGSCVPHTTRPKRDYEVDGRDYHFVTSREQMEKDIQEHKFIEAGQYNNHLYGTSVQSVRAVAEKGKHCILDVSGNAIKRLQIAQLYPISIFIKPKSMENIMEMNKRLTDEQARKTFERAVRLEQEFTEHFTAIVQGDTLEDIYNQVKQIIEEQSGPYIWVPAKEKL

Variant	effect of a mutation on the interaction
T1679A	disrupting interaction
